The data set relates to Bacillus subtilis. In words: cleaved RNA product abundance (RNA/gDNA barcode ratio) relative to median wild-type variant (ratio to wild type); higher = more accumulation of the downstream cleavage product. The conditions noted are these: cleavage site: cggR-gapA (positions -7 to +36 mutated). The essentials:
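Cleaved product abundance for each construct is its RNA-to-gDNA barcode ratio, scaled to the median construct carrying the unmutated site. Cleaved RNA was isolated on a gel, reverse transcribed and barcode-sequenced, with genomic DNA barcodes sequenced alongside and UMIs collapsed. The reporters were truncated aprE or tetM mRNAs with barcoded, mutagenized RNase Y cleavage-site windows integrated into the B. subtilis chromosome, and cultures grew in LB at 37°C from OD600 0.0003 to 0.3.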

[1] abbreviates: experiment (reporter, strain, medium): exp 4a: truncated aprE reporter, strain BJT201 with 2% xylose (RNase J1 expressed).
Setting [2] is: experiment (reporter, strain, medium): exp 2b: truncated aprE reporter, strain BJT200.
The mark [3] stands for this setting: experiment (reporter, strain, medium): exp 6: tetM reporter, strain 168.

We go through 54 sequences from the supplement of paper PMC11780869.

In the case of “ACAGACGAAGGAGCCGCAAAGAAGTTATTAAGGGCTGTATAATCCCTCAATATAAATATCTCTCACTTATTTAAA”, the “cleaved RNA product abundance” value under setting [1] is 0.54.
The same measure, in the same setting: the result for “ACAGACGAAGGAGCCGCAAAGAAGTTATTAAGGGCTTAATAATCCCTCAATATAAATATCTCTCACTTATTTAAA” reads 0.481; that for “ACAGACGAAGGAGCCGCAAAGAAGTTATTAAGGGGATGAATAATCCCTCAATATAAATATCTCTCACTTATTTAA”, 0.237.
The same measure, in the same setting: as for “ACAGACGAAGGAGCCGCAAAGAAGTTATTAAGGGGTAAATAATCCCTCAATATAAATATCTCTCACTTATTTAAA”, the figure is 0.708; as for “ACAGACGAAGGAGCCGCAAAGAAGTTATTAAGGGGTCAATAATCCCTCAATATAAATATCTCTCACTTATTTAAA”, 0.611.
On the same count and under the same terms, as for “ACAGACGAAGGAGCCGCAAAGAAGTTATTAAGGGGTGAAAAATCCCTCAATATAAATATCTCTCACTTATTTAAA”, the figure is 0.504.
Consider “ACAGACGAAGGAGCCGCAAAGAAGTTATTAAGGGGTGAATAATCCCTAAATATAAATATCTCTCACTTATTTAAA”, for which the “cleaved RNA product abundance” value under setting [1] amounted to 0.554.
The same measure, in the same setting: the result for “ACAGACGAAGGAGCCGCAAAGAAGTTATTAAGGGGTGAATAATCCCTCAATATAAATACCTCTCACTTATTTAAA” reads 0.623.
Take “ACAGACGAAGGAGCCGCAAAGAAGTTATTAAGGGGTGAATAATCCCTCAATATAAATATCTCTCACTTATTTAAA”: the “cleaved RNA product abundance” value runs as follows: under setting [2], 0.652; under setting [1], 0.741; under setting [3], 0.741.
With “ACAGACGAAGGAGCCGCAAAGAAGTTATTAAGGGGTGAATAATCCGTCAATATAAATATCTCTCACTTATTTAAA”, the “cleaved RNA product abundance” value runs as follows: under setting [2], 0.159; under setting [1], 0.0683.
In the case of “ACAGACGAAGGAGCCGCAAAGAAGTTATTAAGGGGTGAATAATCCTTCAATATAAATATCTCTCACTTATTTAAA”, under setting [1], the “cleaved RNA product abundance” value was determined as 0.266.
Consider “ACAGACGAAGGAGCCGCAAAGAAGTTATTAAGGGGTGAATAATTCCTCAATATAAATATCTCTCACTTATTTAAA”, for which the “cleaved RNA product abundance” value under setting [1] was found to be 0.228.
The same measure, in the same setting: as for “ACAGACGAAGGAGCCGCAAAGAAGTTATTAAGGGGTGAATACTCCCTCAATATAAATATCTCTCACTTATTTAAA”, the figure is 0.256.
For “ACAGACGAAGGAGCCGCAAAGAAGTTATTAAGGGTAGAATAATCCCTCAATATAAATATCTCTCACTTATTTAAA”, the “cleaved RNA product abundance” value under setting [2] is 0.172 and the “cleaved RNA product abundance” value under setting [1] was found to be 0.293.
For the sequence “ACAGACGAAGGAGCCGCAAAGAAGTTATTAAGGGTCGAATAATCCCTCAATATAAATATCTCTCACTTATTTAAA”, under setting [1], the “cleaved RNA product abundance” value amounted to 0.211.
“ACAGACGAAGGAGCCGCAAAGAAGTTATTAAGGGTTAAATAATCCCTCAATATAAATATCTCTCACTTATTTAAA”: the “cleaved RNA product abundance” value under setting [1] was 0.753.
Same read-out and setting: as for “ACAGACGAAGGAGCCGCAAAGAAGTTATTAAGGGTTGAAAAATCCCTCAATATAAATATCTCTCACTTATTTAAA”, the figure is 0.565.
On to “ACAGACGAAGGAGCCGCAAAGAAGTTATTAAGGGTTGAACAATCCCTCAATATAAATATCTCTCACTTATTTAAA”, for which, under setting [2], the “cleaved RNA product abundance” value came to 0.387.
On to “ACAGACGAAGGAGCCGCAAAGAAGTTATTAAGGGTTGAATAAACCCTCAATATAAATATCTCTCACTTATTTAAA”, for which the “cleaved RNA product abundance” value runs as follows: under setting [2], 1.07; under setting [1], 0.406.
As to “ACAGACGAAGGAGCCGCAAAGAAGTTATTAAGGGTTGAATAAGCCCTCAATATAAATATCTCTCACTTATTTAAA”, the “cleaved RNA product abundance” value under setting [1] turned out to be 0.608.
For “ACAGACGAAGGAGCCGCAAAGAAGTTATTAAGGGTTGAATAATACCTCAATATAAATATCTCTCACTTATTTAAA”, the “cleaved RNA product abundance” value under setting [2] came out at 0.146 and the “cleaved RNA product abundance” value under setting [1] was 0.234.
The corresponding values for “ACAGACGAAGGAGCCGCAAAGAAGTTATTAAGGGTTGAATAATCACTCAATATAAATATCTCTCACTTATTTAAA” are 0.098 and 0.127.
In the case of “ACAGACGAAGGAGCCGCAAAGAAGTTATTAAGGGTTGAATAATCCATCAATATAAATATCTCTCACTTATTTAAA”, the “cleaved RNA product abundance” value under setting [1] was determined as 0.205.
Turning to “ACAGACGAAGGAGCCGCAAAGAAGTTATTAAGGGTTGAATAATCCCACAATATAAATATCTCTCACTTATTTAAA”, the “cleaved RNA product abundance” value under setting [1] came out at 0.0861.
“ACAGACGAAGGAGCCGCAAAGAAGTTATTAAGGGTTGAATAATCCCTCAAAATAAATATCTCTCACTTATTTAAA”: the “cleaved RNA product abundance” value under setting [1] was 0.222.
On the same count and under the same terms, the result for “ACAGACGAAGGAGCCGCAAAGAAGTTATTAAGGGTTGAATAATCCCTCAACATAAATATCTCTCACTTATTTAAA” reads 0.237.
Turning to “ACAGACGAAGGAGCCGCAAAGAAGTTATTAAGGGTTGAATAATCCCTCAATATAAATATCTCTCACTTATTTAAA”, the “cleaved RNA product abundance” value stood at 0.396 under setting [2], 0.483 under setting [1] and 0.439 under setting [3].
In the case of “ACAGACGAAGGAGCCGCAAAGAAGTTATTAAGGGTTGAATAATCCCTCAATATAAATATTTCTCACTTATTTAAA”, the “cleaved RNA product abundance” value under setting [1] came to 0.512.
Still for that read-out and setting: the result for “ACAGACGAAGGAGCCGCAAAGAAGTTATTAAGGGTTGAATAATCCCTCAATATAAATCTCTCTCACTTATTTAAA” reads 0.173; that for “ACAGACGAAGGAGCCGCAAAGAAGTTATTAAGGGTTGAATAATCCCTCAATATAAATTTCTCTCACTTATTTAAA”, 0.436.
Same read-out and setting: the result for “ACAGACGAAGGAGCCGCAAAGAAGTTATTAAGGGTTGAATAATCCCTCAATATACATATCTCTCACTTATTTAAA” reads 0.404.
“ACAGACGAAGGAGCCGCAAAGAAGTTATTAAGGGTTGAATAATCCCTCAATATATATATCTCTCACTTATTTAAA”: the “cleaved RNA product abundance” value under setting [1] is 0.371.
The same measure, in the same setting: as for “ACAGACGAAGGAGCCGCAAAGAAGTTATTAAGGGTTGAATAATCCCTCAATTTAAATATCTCTCACTTATTTAAA”, the figure is 0.132; as for “ACAGACGAAGGAGCCGCAAAGAAGTTATTAAGGGTTGAATAATCCCTCCATATAAATATCTCTCACTTATTTAAA”, 0.0987.
For the sequence “ACAGACGAAGGAGCCGCAAAGAAGTTATTAAGGGTTGAATAATCCCTCTATATAAATATCTCTCACTTATTTAAA”, the “cleaved RNA product abundance” value by setting is: under setting [2], 0.157; under setting [1], 0.151.
Consider “ACAGACGAAGGAGCCGCAAAGAAGTTATTAAGGGTTGAATAATCCCTGAATATAAATATCTCTCACTTATTTAAA”, for which the “cleaved RNA product abundance” value under setting [1] was 0.299.
Regarding “ACAGACGAAGGAGCCGCAAAGAAGTTATTAAGGGTTGAATAATCCCTTAATATAAATATCTCTCACTTATTTAAA”, the “cleaved RNA product abundance” value under setting [1] was determined as 0.608.
Take “ACAGACGAAGGAGCCGCAAAGAAGTTATTAAGGGTTGAATAATCCGTCAATATAAATATCTCTCACTTATTTAAA”: the “cleaved RNA product abundance” value under setting [1] worked out at 0.187.
As to “ACAGACGAAGGAGCCGCAAAGAAGTTATTAAGGGTTGAATAATCCTTCAATATAAATATCTCTCACTTATTTAAA”, the “cleaved RNA product abundance” value under setting [1] worked out at 0.358.
As to “ACAGACGAAGGAGCCGCAAAGAAGTTATTAAGGGTTGAATAATCTCTCAATATAAATATCTCTCACTTATTTAAA”, the “cleaved RNA product abundance” value under setting [1] stood at 0.244.
“ACAGACGAAGGAGCCGCAAAGAAGTTATTAAGGGTTGAATAATTCCTCAATATAAATATCTCTCACTTATTTAAA”: the “cleaved RNA product abundance” value under setting [1] worked out at 0.1.
As to “ACAGACGAAGGAGCCGCAAAGAAGTTATTAAGGGTTGAATCATCCCTCAATATAAATATCTCTCACTTATTTAAA”, the “cleaved RNA product abundance” value under setting [2] came out at 0.5.
Same read-out and setting: as for “ACAGACGAAGGAGCCGCAAAGAAGTTATTAAGGGTTGAATGATCCCTCAATATAAATATCTCTCACTTATTTAAA”, the figure is 0.298.
As to “ACAGACGAAGGAGCCGCAAAGAAGTTATTAAGGGTTGAGTAATCCCTCAATATAAATATCTCTCACTTATTTAAA”, under setting [1], the “cleaved RNA product abundance” value came out at 0.375.
As to “ACAGACGAAGGAGCCGCAAAGAAGTTATTAAGGGTTGATTAATCCCTCAATATAAATATCTCTCACTTATTTAAA”, the “cleaved RNA product abundance” value under setting [2] was determined as 0.287 and the “cleaved RNA product abundance” value under setting [1] was 0.409.
“ACAGACGAAGGAGCCGCAAAGAAGTTATTAAGGGTTGTATAATCCCTCAATATAAATATCTCTCACTTATTTAAA”: the “cleaved RNA product abundance” value under setting [1] stood at 0.309.
As to “ACAGACGAAGGAGCCGCAAAGAAGTTATTAAGGGTTTAATAATCCCTCAATATAAATATCTCTCACTTATTTAAA”, the “cleaved RNA product abundance” value under setting [2] amounted to 0.63 and the “cleaved RNA product abundance” value under setting [1] was 0.667.
In the case of “ACAGACGAAGGAGCCGCAAAGAAGTTATTAAGGTAAGAATAATCCCTCAATATAAATATCTCTCACTTATTTAAA”, under setting [1], the “cleaved RNA product abundance” value was determined as 0.0843.
“ACAGACGAAGGAGCCGCAAAGAAGTTATTAAGGTACGAATAATCCCTCAATATAAATATCTCTCACTTATTTAAA”: the “cleaved RNA product abundance” value runs as follows: under setting [2], 0.0971; under setting [1], 0.106.
The matching figures for “ACAGACGAAGGAGCCGCAAAGAAGTTATTAAGGTAGGAATAATCCCTCAATATAAATATCTCTCACTTATTTAAA”: 0.145 and 0.159.
The matching figures for “ACAGACGAAGGAGCCGCAAAGAAGTTATTAAGGTATAAATAATCCCTCAATATAAATATCTCTCACTTATTTAAA”: 0.0876 and 0.112.
As for “ACAGACGAAGGAGCCGCAAAGAAGTTATTAAGGTATAAATAATCCCTCAATATAAATGTCTCTCACTTATTTAAA”, under setting [1], the “cleaved RNA product abundance” value is 0.11.
Consider “ACAGACGAAGGAGCCGCAAAGAAGTTATTAAGGTATCAATAATCCCTCAATATAAATATCTCTCACTTATTTAAA”, for which the “cleaved RNA product abundance” value by setting is: under setting [2], 0.106; under setting [1], 0.125.
For “ACAGACGAAGGAGCCGCAAAGAAGTTATTAAGGTATGAAAAATCCCTCAATATAAATATCTCTCACTTATTTAAA”, the “cleaved RNA product abundance” value by setting is: under setting [2], 0.0949; under setting [1], 0.145.
